From patent US20160022764A1 (RHYTHM PHARMACEUTICALS, published 2016)
Bridge positions count the residues as written; N and C are the ends. Square brackets hold non-standard residues; d marks the D form. Ends that are not written are not given here. dPhe(4-F) = N[C@H](Cc1ccc(F)cc1)C(=O)O; dTle = CC(C)(C)[C@@H](N)C(=O)O; Pen = CC(C)(S)[C@H](N)C(=O)O; hCys = N[C@@H](CCS)C(=O)O

B1: Compound 15: Ac-Arg-cyclo[hCys-Ala-D-Phe-Arg-Trp-Cys]-NH2 (peptide)
peptide: Ac-R[hCys]A[dF]RWC-NH2
modifications: disulfide 2-7
SMILES: CC(=O)N[C@@H](CCCNC(=N)N)C(=O)N[C@H]1CCSSC[C@@H](C(N)=O)NC(=O)[C@H](Cc2c[nH]c3ccccc23)NC(=O)[C@H](CCCNC(=N)N)NC(=O)[C@@H](Cc2ccccc2)NC(=O)[C@H](C)NC1=O
B2: Compound 16: Ac-Arg-cyclo[hCys-D-Ala-D-Phe-Arg-Trp-Cys]-NH2 (peptide)
peptide: Ac-R[hCys][dA][dF]RWC-NH2
modifications: disulfide 2-7
SMILES: CC(=O)N[C@@H](CCCNC(=N)N)C(=O)N[C@H]1CCSSC[C@@H](C(N)=O)NC(=O)[C@H](Cc2c[nH]c3ccccc23)NC(=O)[C@H](CCCNC(=N)N)NC(=O)[C@@H](Cc2ccccc2)NC(=O)[C@@H](C)NC1=O
B3: Compound 17: Ac-Arg-cyclo[hCys-D-Ala-D-Phe-Arg-Trp-Pen]-NH2 (peptide)
peptide: Ac-R[hCys][dA][dF]RW[Pen]-NH2
modifications: disulfide 2-7
SMILES: CC(=O)N[C@@H](CCCNC(=N)N)C(=O)N[C@H]1CCSSC(C)(C)[C@@H](C(N)=O)NC(=O)[C@H](Cc2c[nH]c3ccccc23)NC(=O)[C@H](CCCNC(=N)N)NC(=O)[C@@H](Cc2ccccc2)NC(=O)[C@@H](C)NC1=O
B4: Compound 22: Ac-Glu-cyclo[Cys-Ala-His-D-Phe-Arg-Trp-Cys]-NH2 (peptide)
peptide: Ac-ECAH[dF]RWC-NH2
modifications: disulfide 2-8
SMILES: CC(=O)N[C@@H](CCC(=O)O)C(=O)N[C@H]1CSSC[C@@H](C(N)=O)NC(=O)[C@H](Cc2c[nH]c3ccccc23)NC(=O)[C@H](CCCNC(=N)N)NC(=O)[C@@H](Cc2ccccc2)NC(=O)[C@H](Cc2c[nH]cn2)NC(=O)[C@H](C)NC1=O
B5: Compound 7: Ac-Arg-cyclo[Cys-D-Ala-Trp-D-Phe-Arg-Trp-Cys]-NH2 (peptide)
peptide: Ac-RC[dA]W[dF]RWC-NH2
modifications: disulfide 2-8
SMILES: CC(=O)N[C@@H](CCCNC(=N)N)C(=O)N[C@H]1CSSC[C@@H](C(N)=O)NC(=O)[C@H](Cc2c[nH]c3ccccc23)NC(=O)[C@H](CCCNC(=N)N)NC(=O)[C@@H](Cc2ccccc2)NC(=O)[C@H](Cc2c[nH]c3ccccc23)NC(=O)[C@@H](C)NC1=O
B6: Compound 8: Ac-Arg-cyclo[Cys-D-Ala-Gln-D-Phe-Arg-Trp-Cys]-NH2 (peptide)
peptide: Ac-RC[dA]Q[dF]RWC-NH2
modifications: disulfide 2-8
SMILES: CC(=O)N[C@@H](CCCNC(=N)N)C(=O)N[C@H]1CSSC[C@@H](C(N)=O)NC(=O)[C@H](Cc2c[nH]c3ccccc23)NC(=O)[C@H](CCCNC(=N)N)NC(=O)[C@@H](Cc2ccccc2)NC(=O)[C@H](CCC(N)=O)NC(=O)[C@@H](C)NC1=O
B7: Compound 9: Ac-Arg-cyclo[Cys-D-Ala-Asn-D-Phe-Arg-Trp-Cys]-NH2 (peptide)
peptide: Ac-RC[dA]N[dF]RWC-NH2
modifications: disulfide 2-8
SMILES: CC(=O)N[C@@H](CCCNC(=N)N)C(=O)N[C@H]1CSSC[C@@H](C(N)=O)NC(=O)[C@H](Cc2c[nH]c3ccccc23)NC(=O)[C@H](CCCNC(=N)N)NC(=O)[C@@H](Cc2ccccc2)NC(=O)[C@H](CC(N)=O)NC(=O)[C@@H](C)NC1=O
B8: Compound 10: Ac-Arg-cyclo[Cys-D-Ala-Arg-D-Phe-Arg-Trp-Cys]-NH2 (peptide)
peptide: Ac-RC[dA]R[dF]RWC-NH2
modifications: disulfide 2-8
SMILES: CC(=O)N[C@@H](CCCNC(=N)N)C(=O)N[C@H]1CSSC[C@@H](C(N)=O)NC(=O)[C@H](Cc2c[nH]c3ccccc23)NC(=O)[C@H](CCCNC(=N)N)NC(=O)[C@@H](Cc2ccccc2)NC(=O)[C@H](CCCNC(=N)N)NC(=O)[C@@H](C)NC1=O
B9: Compound 11: Ac-Arg-cyclo[Cys-D-Ala-Tyr-D-Phe-Arg-Trp-Cys]-NH2 (peptide)
peptide: Ac-RC[dA]Y[dF]RWC-NH2
modifications: disulfide 2-8
SMILES: CC(=O)N[C@@H](CCCNC(=N)N)C(=O)N[C@H]1CSSC[C@@H](C(N)=O)NC(=O)[C@H](Cc2c[nH]c3ccccc23)NC(=O)[C@H](CCCNC(=N)N)NC(=O)[C@@H](Cc2ccccc2)NC(=O)[C@H](Cc2ccc(O)cc2)NC(=O)[C@@H](C)NC1=O
B10: Compound 13: Ac-Arg-cyclo[Cys-D-Ala-Pro-D-Phe-Arg-Trp-Cys]-NH2 (peptide)
peptide: Ac-RC[dA]P[dF]RWC-NH2
modifications: disulfide 2-8
SMILES: CC(=O)N[C@@H](CCCNC(=N)N)C(=O)N[C@H]1CSSC[C@@H](C(N)=O)NC(=O)[C@H](Cc2c[nH]c3ccccc23)NC(=O)[C@H](CCCNC(=N)N)NC(=O)[C@@H](Cc2ccccc2)NC(=O)[C@@H]2CCCN2C(=O)[C@@H](C)NC1=O
B11: Compound 14: Ac-Arg-cyclo[Cys-D-Ala-Pro-D-Phe(p-F)-Arg-Trp-Cys]-NH2 (peptide)
peptide: Ac-RC[dA]P[dPhe(4-F)]RWC-NH2
modifications: disulfide 2-8
SMILES: CC(=O)N[C@@H](CCCNC(=N)N)C(=O)N[C@H]1CSSC[C@@H](C(N)=O)NC(=O)[C@H](Cc2c[nH]c3ccccc23)NC(=O)[C@H](CCCNC(=N)N)NC(=O)[C@@H](Cc2ccc(F)cc2)NC(=O)[C@@H]2CCCN2C(=O)[C@@H](C)NC1=O

biological target: melanocortin-1 receptor (human, UniProt Q01726 1-317); experiment: cell-based or functional assay
Sequence (Q01726 whole entry): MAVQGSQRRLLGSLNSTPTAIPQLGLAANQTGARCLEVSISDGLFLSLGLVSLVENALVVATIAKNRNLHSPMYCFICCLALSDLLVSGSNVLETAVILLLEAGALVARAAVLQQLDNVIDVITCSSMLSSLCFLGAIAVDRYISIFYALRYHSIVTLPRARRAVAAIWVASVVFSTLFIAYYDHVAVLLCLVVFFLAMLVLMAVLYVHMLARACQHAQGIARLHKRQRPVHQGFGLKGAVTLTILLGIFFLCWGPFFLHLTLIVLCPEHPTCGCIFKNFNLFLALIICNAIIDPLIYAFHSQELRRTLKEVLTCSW

Binder | Ratios of EC50 values: MC1/4 | cAMP Assay (EC-50) [nM]
Ac-RC[dL]H[dF]RWC-NH2 (disulfide 2-8) [Compound 1: Ac-Arg-cyclo[Cys-D-Leu-His-D-Phe-Arg-Trp-Cys]-NH2] | 0.68 | 0.47
B1 | 15 | 4
B2 | 120 | 888
B3 | 15 | 195
B4 | > 3 | 1.7
Ac-RC[dI]H[dF]RWC-NH2 (disulfide 2-8) [Compound 2: Ac-Arg-cyclo[Cys-D-Ile-His-D-Phe-Arg-Trp-Cys]-NH2] | 0.69 | 0.69
Ac-RC[dTle]H[dF]RWC-NH2 (disulfide 2-8) [Compound 3: Ac-Arg-cyclo[Cys-D-Tle-His-D-Phe-Arg-Trp-Cys]-NH2] | – | 1
Ac-RC[dV]H[dF]RWC-NH2 (disulfide 2-8) [Compound 4: Ac-Arg-cyclo[Cys-D-Val-His-D-Phe-Arg-Trp-Cys]-NH2] | 0.93 | 1.25
Ac-RC[dA][His(3-Me)][dF]RWC-NH2 (disulfide 2-8) [Compound 5: Ac-Arg-cyclo[Cys-D-Ala-His(3-Me)-D-Phe-Arg-Trp-Cys]-NH2] | – | 4.1
Ac-RC[dA][His(1-Me)][dF]RWC-NH2 (disulfide 2-8) [Compound 6: Ac-Arg-cyclo[Cys-D-Ala-His(1-Me)-D-Phe-Arg-Trp-Cys]-NH2] | – | 30.4
B5 | 8 | 273
B6 | 40 | 71
B7 | 90 | 248
B8 | 2.31 | 6.2
B9 | 6.67 | 301
B10 | 5 | 280
B11 | 7 | 169

biological target: melanocortin-3 receptor (human, UniProt P41968 1-323); experiment: cell-based or functional assay
Sequence (P41968 whole entry): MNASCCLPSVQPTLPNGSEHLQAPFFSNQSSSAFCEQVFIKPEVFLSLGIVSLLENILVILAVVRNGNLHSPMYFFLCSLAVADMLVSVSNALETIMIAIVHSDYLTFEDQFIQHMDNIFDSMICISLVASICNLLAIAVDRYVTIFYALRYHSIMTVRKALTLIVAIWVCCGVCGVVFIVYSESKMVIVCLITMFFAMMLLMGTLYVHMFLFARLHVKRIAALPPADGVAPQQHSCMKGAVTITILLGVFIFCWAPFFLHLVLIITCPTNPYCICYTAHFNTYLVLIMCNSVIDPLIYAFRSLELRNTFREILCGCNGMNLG

Binder | Ratios of EC50 values: MC3/4 | cAMP Assay (EC-50) [nM]
Ac-RC[dL]H[dF]RWC-NH2 (disulfide 2-8) [Compound 1: Ac-Arg-cyclo[Cys-D-Leu-His-D-Phe-Arg-Trp-Cys]-NH2] | 1.13 | 0.79
B1 | 3.8 | 1
B2 | 420 | 3160
B3 | 17 | 233
B4 | > 20 | 9.9
Ac-RC[dI]H[dF]RWC-NH2 (disulfide 2-8) [Compound 2: Ac-Arg-cyclo[Cys-D-Ile-His-D-Phe-Arg-Trp-Cys]-NH2] | 0.96 | 0.96
Ac-RC[dTle]H[dF]RWC-NH2 (disulfide 2-8) [Compound 3: Ac-Arg-cyclo[Cys-D-Tle-His-D-Phe-Arg-Trp-Cys]-NH2] | – | 0.7
Ac-RC[dV]H[dF]RWC-NH2 (disulfide 2-8) [Compound 4: Ac-Arg-cyclo[Cys-D-Val-His-D-Phe-Arg-Trp-Cys]-NH2] | 1.19 | 1.59
Ac-RC[dA][His(3-Me)][dF]RWC-NH2 (disulfide 2-8) [Compound 5: Ac-Arg-cyclo[Cys-D-Ala-His(3-Me)-D-Phe-Arg-Trp-Cys]-NH2] | – | 406
Ac-RC[dA][His(1-Me)][dF]RWC-NH2 (disulfide 2-8) [Compound 6: Ac-Arg-cyclo[Cys-D-Ala-His(1-Me)-D-Phe-Arg-Trp-Cys]-NH2] | – | 4.3
B5 | > 290 | > 10000
B6 | 5 | 8.6
B7 | 30 | 81
B8 | 1.45 | 3.9
B9 | > 22.2 | > 1000
B10 | > 200 | > 10000
B11 | > 400 | > 10000

biological target: melanocortin-4 receptor (human, UniProt P32245 1-332); experiment: cell-based or functional assay
Sequence (P32245 whole entry): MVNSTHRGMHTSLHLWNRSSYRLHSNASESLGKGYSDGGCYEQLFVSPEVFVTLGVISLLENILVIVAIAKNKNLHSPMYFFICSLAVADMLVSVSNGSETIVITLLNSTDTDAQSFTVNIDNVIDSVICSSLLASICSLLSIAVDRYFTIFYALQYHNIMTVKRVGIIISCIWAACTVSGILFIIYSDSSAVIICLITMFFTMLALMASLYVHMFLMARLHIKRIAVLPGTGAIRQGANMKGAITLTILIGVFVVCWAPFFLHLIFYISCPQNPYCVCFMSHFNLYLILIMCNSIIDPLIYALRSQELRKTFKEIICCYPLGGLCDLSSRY

Binder | cAMP Assay (EC-50) [nM]
Ac-RC[dL]H[dF]RWC-NH2 (disulfide 2-8) [Compound 1: Ac-Arg-cyclo[Cys-D-Leu-His-D-Phe-Arg-Trp-Cys]-NH2] | 0.7
B1 | 0.26
B2 | 7.5
B3 | 13.7
B4 | < 0.5
Ac-RC[dI]H[dF]RWC-NH2 (disulfide 2-8) [Compound 2: Ac-Arg-cyclo[Cys-D-Ile-His-D-Phe-Arg-Trp-Cys]-NH2] | 1
Ac-RC[dV]H[dF]RWC-NH2 (disulfide 2-8) [Compound 4: Ac-Arg-cyclo[Cys-D-Val-His-D-Phe-Arg-Trp-Cys]-NH2] | 1.34
Ac-RC[dA][His(3-Me)][dF]RWC-NH2 (disulfide 2-8) [Compound 5: Ac-Arg-cyclo[Cys-D-Ala-His(3-Me)-D-Phe-Arg-Trp-Cys]-NH2] | 1.15
B5 | 34
B6 | 1.6
B7 | 3
B8 | 2.7
B9 | 45.1
B10 | 56
B11 | 24

biological target: melanocortin-5 receptor (human, UniProt P33032 1-325); experiment: cell-based or functional assay
Sequence (P33032 whole entry): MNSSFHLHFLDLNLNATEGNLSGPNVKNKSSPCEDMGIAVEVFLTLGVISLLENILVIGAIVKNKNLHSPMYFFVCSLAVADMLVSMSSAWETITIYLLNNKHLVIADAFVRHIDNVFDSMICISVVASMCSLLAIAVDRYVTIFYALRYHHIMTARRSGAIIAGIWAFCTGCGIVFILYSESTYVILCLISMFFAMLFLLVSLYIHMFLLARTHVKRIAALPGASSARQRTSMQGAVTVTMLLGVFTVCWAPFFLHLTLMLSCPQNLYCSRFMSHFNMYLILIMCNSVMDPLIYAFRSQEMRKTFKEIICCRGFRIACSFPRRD

Binder | Ratios of EC50 values: MC5/4 | cAMP Assay (EC-50) [nM]
Ac-RC[dL]H[dF]RWC-NH2 (disulfide 2-8) [Compound 1: Ac-Arg-cyclo[Cys-D-Leu-His-D-Phe-Arg-Trp-Cys]-NH2] | 130 | 91
B1 | 161 | 42
B2 | > 1340 | > 10000
B3 | 159 | 2180
B4 | > 2560 | 1280
Ac-RC[dI]H[dF]RWC-NH2 (disulfide 2-8) [Compound 2: Ac-Arg-cyclo[Cys-D-Ile-His-D-Phe-Arg-Trp-Cys]-NH2] | 420 | 420
Ac-RC[dTle]H[dF]RWC-NH2 (disulfide 2-8) [Compound 3: Ac-Arg-cyclo[Cys-D-Tle-His-D-Phe-Arg-Trp-Cys]-NH2] | – | 672
Ac-RC[dV]H[dF]RWC-NH2 (disulfide 2-8) [Compound 4: Ac-Arg-cyclo[Cys-D-Val-His-D-Phe-Arg-Trp-Cys]-NH2] | 584 | 782
Ac-RC[dA][His(3-Me)][dF]RWC-NH2 (disulfide 2-8) [Compound 5: Ac-Arg-cyclo[Cys-D-Ala-His(3-Me)-D-Phe-Arg-Trp-Cys]-NH2] | – | 1080
RCAHFRWC (cysteine pairing not given here; also: further groups not given here) [Peptide 1] | – | 1600
Ac-RC[dA][His(1-Me)][dF]RWC-NH2 (disulfide 2-8) [Compound 6: Ac-Arg-cyclo[Cys-D-Ala-His(1-Me)-D-Phe-Arg-Trp-Cys]-NH2] | – | 467
B5 | 7 | 259
B6 | 155 | 255
B7 | 530 | 1490
B10 | 13 | 707
B11 | 12 | 283
